The supplement of paper PMC7877785
± gives the uncertainty stated by the source.

Assay: self-splicing fitness, log relative to wild type (ln ratio); higher = more splicing; Tetrahymena group I intron in knt gene, E. coli kanamycin selection, DiMSum; sequences stand for … in CUCUCU…GGAGGGAAAAGUUAUCAGGCAUGCACCUGGUAGCUAGUCUUUAAACCAAUAGAUUGCAUCGGUUUAAAAGGCAAGACCGUCAAAUUGCGGGAAAGGGGUCAACAGCCGUUCAGUACCAAGUCUCAGGGGAAACUUUGAGAUGGCCUUGCAAAGGGUAUGGUAAUAAGCUGACGGACAUGGUCCUAACCACGCAGCCAAGUCCUAAGUCAACAGAUCUUCUGUUGAUAUGGAUGCAGUUCACAGACUAAAUGUCGGUCGGGGAAGAUGUAUUCUUCUCAUAAGAUAUAGUCGGACCUCUCCUUAAUGGGAGCUAGCGGAUGAAGUGAUGCAACACUGGAGCCGCUGGGAACUAAUUUGUAUGCGAAAGUAUAUUGAUUAGUUUUGGAGUACUCGUGGUCG
Summary of the method: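 The eight P1ex-region nucleotides of an intron in the knt kanamycin-resistance gene on pET-22b(+) were all randomised and the library put into E. coli BL21(DE3). Six replicate transformations were grown overnight at 37°C or 30°C on LB agar with or without 25 μg/mL kanamycin, together with 100 μg/mL carbenicillin, 50 μM IPTG and 0.2% rhamnose. Colonies were pooled and amplicon-sequenced on an Illumina HiSeq 2500. Fitness from DiMSum is the error-weighted combination of wild-type-normalised replicate fold changes, kanamycin over none.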

Sequence | self-splicing fitness (ln) (30 °C) | self-splicing fitness (ln) (37 °C)
CCUCAGCAAUAUUACGGUGC | -2.28 ± 0.15 | -2.77 ± 0.48
CCUCAGCAAUAUUACGGUGG | -4.11 ± 0.16 | -2.41 ± 0.16
CCUCAGCAAUAUUACGGUUA | -3.34 ± 0.21 | -3.26 ± 0.19
CCUCAGCAAUAUUACGGUUG | -2.28 ± 0.085 | -0.828 ± 0.094
CCUCAGCAAUAUUACGUAGA | -3.97 ± 0.28 | -2.8 ± 0.3
CCUCAGCAAUAUUACGUAUG | -1.75 ± 0.075 | -0.495 ± 0.079
CCUCAGCAAUAUUACGUCCU | -4.39 ± 0.31 | -2.68 ± 0.3
CCUCAGCAAUAUUACGUGUG | -1.4 ± 0.061 | -0.812 ± 0.062
CCUCAGCAAUAUUACGUUGU | -4.98 ± 0.23 | -2.52 ± 0.13
CCUCAGCAAUAUUACGUUUU | -4.52 ± 0.27 | -3.03 ± 0.17
CCUGAGCAAUAUUACGAAAA | -3.64 ± 0.35 | -2.52 ± 0.37
CCUGAGCAAUAUUACGAACC | -3.35 ± 0.3 | 
CCUGAGCAAUAUUACGACUG | -1.38 ± 0.16 | -1.25 ± 0.19
CCUGAGCAAUAUUACGAGCG | -2.57 ± 0.14 | -0.727 ± 0.14
CCUGAGCAAUAUUACGAGGG | -3.48 ± 0.19 | -2.22 ± 0.23
CCUGAGCAAUAUUACGAGUA | -2.98 ± 0.21 | -3.03 ± 0.43
CCUGAGCAAUAUUACGAUCU | -4.01 ± 0.39 | 
CCUGAGCAAUAUUACGAUUG | -2.48 ± 0.17 | -2.83 ± 0.27
CCUGAGCAAUAUUACGCAAA | -2.19 ± 0.26 | -2.42 ± 0.28
CCUGAGCAAUAUUACGCAGG | -2.64 ± 0.27 | -3.36 ± 0.42

Sequence | self-splicing fitness (ln) (30 °C) | self-splicing fitness (ln) (37 °C)
CCUGAGCAAUAUUACGCAUA | -3.03 ± 0.32 | -2.83 ± 0.47
CCUGAGCAAUAUUACGCCGA | -3.1 ± 0.39 | -3.2 ± 0.4
CCUGAGCAAUAUUACGCGCU | -4.19 ± 0.39 | -2.1 ± 0.24
CCUGAGCAAUAUUACGCGUG | -3.05 ± 0.19 | -2.82 ± 0.22
CCUGAGCAAUAUUACGCUUU | -1.94 ± 0.17 | -3.14 ± 0.28
CCUGAGCAAUAUUACGGAGC | -1.59 ± 0.47 | -1.9 ± 0.38
CCUGAGCAAUAUUACGGGAC | -4.19 ± 0.46 | -2.08 ± 0.27
CCUGAGCAAUAUUACGGGAG | -4.51 ± 0.27 | -2.65 ± 0.2
CCUGAGCAAUAUUACGGGGC | -3.49 ± 0.28 | 
CCUGAGCAAUAUUACGGUGC | -2.51 ± 0.25 | -2.15 ± 0.43
CCUGAGCAAUAUUACGUAAA |  | -2.49 ± 0.33
CCUGAGCAAUAUUACGUAUU | -2.38 ± 0.16 | -2.98 ± 0.21
CCUGAGCAAUAUUACGUCAC |  | -1.54 ± 0.31
CCUGAGCAAUAUUACGUCAG | -2.64 ± 0.099 | -2.19 ± 0.099
CCUGAGCAAUAUUACGUCUC |  | -3.42 ± 0.37
CCUGAGCAAUAUUACGUGAU | -3.68 ± 0.24 | -3.54 ± 0.33
CCUGAGCAAUAUUACGUGGA | -3.5 ± 0.2 | -2.03 ± 0.18
CCUGAGCAAUAUUACGUGUC | -4.13 ± 0.21 | -2 ± 0.13
CCUGAGCAAUAUUACGUUCA | -3.2 ± 0.43 | -2.59 ± 0.32
